± gives the standard error. Fewer inactive variants are shown than the library holds.
B1: glmS ribozyme (parent)
chain: AUAAAAGCGCCAGAACUACAGAAAUGUAGUUGACGAGGAGGAGGUUUAUCGAAUUUUCGGCGGAUGCCUCCAAA

Tests used:
Conditions in all cases: with glucosamine-6-phosphate
[1] = variants of: B1; test: self-cleavage kobs at 40 uM GlcN6P; higher = faster cleavage; RNA array
In short: (§1)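 A hybridised Cy3 probe tracked barcoded ribozyme variants, transcribed in situ by E. coli RNA polymerase on sequenced MiSeq chips, at 37 °C. The variants received 40 μM to 10 mM glucosamine-6-phosphate in HEPES/KCl/Mg(OAc)2 buffer. kobs came from decay fits and kcat and KM from weighted Michaelis–Menten fits.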

[2] = variants of: B1; test: self-cleavage kobs at 160 uM GlcN6P; higher = faster cleavage; RNA array
In short: as §1

[3] = variants of: B1; test: self-cleavage kobs at 2500 uM GlcN6P; higher = faster cleavage; RNA array
In short: as §1

[4] = variants of: B1; test: self-cleavage kobs at 10000 uM GlcN6P; higher = faster cleavage; RNA array
In short: as §1

[5] = variants of: B1; test: self-cleavage kobs at 640 uM GlcN6P; higher = faster cleavage; RNA array
In short: as §1

| Variant | self-cleavage kobs at 40 uM GlcN6P [1] [s⁻¹] | self-cleavage kobs at 160 uM GlcN6P [2] [s⁻¹] | self-cleavage kobs at 2500 uM GlcN6P [3] [s⁻¹] | self-cleavage kobs at 10000 uM GlcN6P [4] [s⁻¹] | self-cleavage kobs at 640 uM GlcN6P [5] [s⁻¹] |
| --- | --- | --- | --- | --- | --- |
| C34G A39C U46G | < 1e-05 | < 1e-05 | < 1e-05 | < 1e-05 | – |
| C34A G60A C71A | < 1e-05 | – | – | < 1e-05 | – |
| A33C U49C C50U | < 1e-05 | – | – | < 1e-05 | – |
| A33U G38U A42U U56C G63U | < 1e-05 | – | – | < 1e-05 | – |
| G32C A39C G44A A48G U65C C68A C71A | < 1e-05 | – | – | < 1e-05 | – |
| C34A G44U | < 1e-05 | < 1e-05 | < 1e-05 | < 1e-05 | < 1e-05 |
| U31C G43C | < 1e-05 | – | < 1e-05 | < 1e-05 | < 1e-05 |
| A33U U45G G51A | < 1e-05 | – | – | < 1e-05 | – |
| U30G G60C | < 1e-05 | – | – | < 1e-05 | < 1e-05 |
| A33G A42G U46G U56A | < 1e-05 | – | < 1e-05 | < 1e-05 | < 1e-05 |
| A33C G44A C71A | < 1e-05 | – | – | < 1e-05 | – |
| G32U G63A C67U | < 1e-05 | – | < 1e-05 | < 1e-05 | – |
| U31G G32C G38U G43U G59A G63A U69A | < 1e-05 | – | – | – | – |
| C34A G51A G63U C71U | < 1e-05 | – | – | < 1e-05 | – |
| G32A G62A | < 1e-05 | < 1e-05 | – | < 1e-05 | < 1e-05 |
| U31C G37C | < 1e-05 | < 1e-05 | – | – | – |
| A33C C71G | < 1e-05 | – | < 1e-05 | – | – |
| U31A A36G | < 1e-05 | < 1e-05 | – | – | < 1e-05 |
| U31G C61U | < 1e-05 | < 1e-05 | < 1e-05 | – | < 1e-05 |
| A33C A52C C71A | < 1e-05 | – | < 1e-05 | – | < 1e-05 |
| U31G C70U | 0.000479 ± 7.2e-05 | 0.00104 ± 0.0002 | 0.0117 ± 0.0029 | 0.0305 ± 0.0058 | 0.0023 ± 0.00038 |
| C34G C50A A53G | < 1e-05 | – | – | – | – |
| C34G A42G U56G C67A | < 1e-05 | – | – | < 1e-05 | – |
| U30G G35A | < 1e-05 | – | < 1e-05 | < 1e-05 | – |

| Variant | self-cleavage kobs at 40 uM GlcN6P [1] [s⁻¹] | self-cleavage kobs at 160 uM GlcN6P [2] [s⁻¹] | self-cleavage kobs at 2500 uM GlcN6P [3] [s⁻¹] | self-cleavage kobs at 10000 uM GlcN6P [4] [s⁻¹] | self-cleavage kobs at 640 uM GlcN6P [5] [s⁻¹] |
| --- | --- | --- | --- | --- | --- |
| A33U C58U C71A | < 1e-05 | – | < 1e-05 | – | < 1e-05 |
| A33C A48G | < 1e-05 | < 1e-05 | – | < 1e-05 | < 1e-05 |
| G32C U57C | < 1e-05 | < 1e-05 | – | – | < 1e-05 |
| U31A G59A G62A | < 1e-05 | – | – | – | – |
| G32C C67A | < 1e-05 | – | – | 2.83e-05 ± 9.7e-06 | – |
| G32U U65C | < 1e-05 | < 1e-05 | < 1e-05 | – | < 1e-05 |
| A33U C67G C70U | < 1e-05 | – | – | – | – |
| U31C U49G C67U | < 1e-05 | – | – | – | – |
| C34G A52U U55A | < 1e-05 | – | < 1e-05 | < 1e-05 | – |
| G32C A42C C68A | < 1e-05 | – | – | – | < 1e-05 |
| U30G U45A A64C | < 1e-05 | – | – | 7e-05 ± 1.7e-05 | – |
| U31G A36C C61U | < 1e-05 | – | – | < 1e-05 | – |
| A33G A39G G60U | < 1e-05 | – | < 1e-05 | < 1e-05 | – |
| C34A A39C | < 1e-05 | < 1e-05 | < 1e-05 | < 1e-05 | – |
| A33C U45C | < 1e-05 | – | – | 4.65e-05 ± 1.3e-05 | – |
| G32U A36U G41A | < 1e-05 | – | – | – | < 1e-05 |
| G32C G40C | < 1e-05 | < 1e-05 | – | – | < 1e-05 |
| A33U U65C | < 1e-05 | < 1e-05 | – | – | < 1e-05 |
| A33U G40A A42C | < 1e-05 | < 1e-05 | < 1e-05 | < 1e-05 | < 1e-05 |
| U31C A39U C68A | < 1e-05 | – | – | – | < 1e-05 |
| A33U G37C | < 1e-05 | < 1e-05 | – | < 1e-05 | – |
| U31G C50G C70U | 5.37e-05 ± 2.4e-05 | – | – | 4.81e-05 ± 1.5e-05 | – |
| A33G G35A U47A C67U C70G | 5.2e-05 ± 2.3e-05 | – | – | 6.3e-05 ± 1.7e-05 | – |
| G32C G63A | < 1e-05 | < 1e-05 | < 1e-05 | – | < 1e-05 |

From the supplement of paper PMC7125110
